The source of these data is IntAct's records for PubMed 23263282.

The labels stand for the following.
B1: Telomere length regulation protein TEL2 homolog (Homo sapiens), Q9Y4R8 (parent)
chain: MEPAPSEVRLAVREAIHALSSSEDGGHIFCTLESLKRYLGEMEPPALPREKEEFASAHFSPVLRCLASRLSPAWLELLPHGRLEELWASFFLEGPADQAFLVLMETIEGAAGPSFRLMKMARLLARFLREGRLAVLMEAQCRQQTQPGFILLRETLLGKVVALPDHLGNRLQQENLAEFFPQNYFRLLGEEVVRVLQAVVDSLQGGLDSSVSFVSQVLGKACVHGRQQEILGVLVPRLAALTQGSYLHQRVCWRLVEQVPDRAMEAVLTGLVEAALGPEVLSRLLGNLVVKNKKAQFVMTQKLLFLQSRLTTPMLQSLLGHLAMDSQRRPLLLQVLKELLETWGSSSAIRHTPLPQQRHVSKAVLICLAQLGEPELRDSRDELLASMMAGVKCRLDSSLPPVRRLGMIVAEVVSARIHPEGPPLKFQYEEDELSLELLALASPQPAGDGASEAGTSLVPATAEPPAETPAEIVDGGVPQAQLAGSDSDLDSDDEFVPYDMSGDRELKSSKAPAYVRDCVEALTTSEDIERWEAALRALEGLVYRSPTATREVSVELAKVLLHLEEKTCVVGFAGLRQRALVAVTVTDPAPVADYLTSQFYALNYSLRQRMDILDVLTLAAQELSRPGCLGRTPQPGSPSPNTPCLPEAAVSQPGSAVASDWRVVVEERIRSKTQRLSKGGPRQGPAGSPSRFNSVAGHFFFPLLQRFDRPLVTFDLLGEDQLVLGRLAHTLGALMCLAVNTTVAVAMGKALLEFVWALRFHIDAYVRQGLLSAVSSVLLSLPAARLLEDLMDELLEARSWLADVAEKDPDEDCRTLALRALLLLQRLKNRLLPPASP
partner: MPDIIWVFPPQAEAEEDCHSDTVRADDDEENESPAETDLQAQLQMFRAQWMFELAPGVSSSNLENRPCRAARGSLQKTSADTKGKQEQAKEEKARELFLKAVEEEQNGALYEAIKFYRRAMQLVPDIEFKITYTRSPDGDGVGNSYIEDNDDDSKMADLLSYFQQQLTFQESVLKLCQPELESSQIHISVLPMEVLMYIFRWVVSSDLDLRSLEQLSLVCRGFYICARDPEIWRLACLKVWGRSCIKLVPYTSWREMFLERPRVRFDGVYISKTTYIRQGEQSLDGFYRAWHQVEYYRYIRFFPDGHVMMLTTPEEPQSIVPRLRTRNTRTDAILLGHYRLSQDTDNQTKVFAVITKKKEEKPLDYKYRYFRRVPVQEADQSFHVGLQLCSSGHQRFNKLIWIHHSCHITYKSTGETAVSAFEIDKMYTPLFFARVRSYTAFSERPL
B2: TELO2-interacting protein 1 homolog (Homo sapiens), O43156 (parent)
chain: MAVFDTPEEAFGVLRPVCVQLTKTQTVENVEHLQTRLQAVSDSALQELQQYILFPLRFTLKTPGPKRERLIQSVVECLTFVLSSTCVKEQELLQELFSELSACLYSPSSQKPAAVSEELKLAVIQGLSTLMHSAYGDIILTFYEPSILPRLGFAVSLLLGLAEQEKSKQIKIAALKCLQVLLLQCDCQDHPRSLDELEQKQLGDLFASFLPGISTALTRLITGDFKQGHSIVVSSLKIFYKTVSFIMADEQLKRISKVQAKPAVEHRVAELMVYREADWVKKTGDKLTILIKKIIECVSVHPHWKVRLELVELVEDLLLKCSQSLVECAGPLLKALVGLVNDESPEIQAQCNKVLRHFADQKVVVGNKALADILSESLHSLATSLPRLMNSQDDQGKFSTLSLLLGYLKLLGPKINFVLNSVAHLQRLSKALIQVLELDVADIKIVEERRWNSDDLNASPKTSATQPWNRIQRRYFRFFTDERIFMLLRQVCQLLGYYGNLYLLVDHFMELYHQSVVYRKQAAMILNELVTGAAGLEVEDLHEKHIKTNPEELREIVTSILEEYTSQENWYLVTCLETEEMGEELMMEHPGLQAITSGEHTCQVTSFLAFSKPSPTICSMNSNIWQICIQLEGIGQFAYALGKDFCLLLMSALYPVLEKAGDQTLLISQVATSTMMDVCRACGYDSLQHLINQNSDYLVNGISLNLRHLALHPHTPKVLEVMLRNSDANLLPLVADVVQDVLATLDQFYDKRAASFVSVLHALMAALAQWFPDTGNLGHLQEQSLGEEGSHLNQRPAALEKSTTTAEDIEQFLLNYLKEKDVADGNVSDFDNEEEEQSVPPKVDENDTRPDVEPPLPLQIQIAMDVMERCIHLLSDKNLQIRLKVLDVLDLCVVVLQSHKNQLLPLAHQAWPSLVHRLTRDAPLAVLRAFKVLRTLGSKCGDFLRSRFCKDVLPKLAGSLVTQAPISARAGPVYSHTLAFKLQLAVLQGLGPLCERLDLGEGDLNKVADACLIYLSVKQPVKLQEAARSVFLHLMKVDPDSTWFLLNELYCPVQFTPPHPSLHPVQLHGASGQQNPYTTNVLQLLKELQ
partner: B1 partner

The variants in the first assay derive from B1. The conditions noted are these: with fbx9_human FBXO9, Q9UK97.
Turning to S485A;S487A, the “effect of a mutation on the interaction” value was “decreasing interaction strength”.

The variants in a further assay derive from B2. Particulars: with fbx9_human FBXO9, Q9UK97.
As for S828A, the “effect of a mutation on the interaction” value was “disrupting interaction strength”.
